Assay results reported in US20230212549A1 (3B PHARMACEUTICALS, published 2023).
Numbered stars: 1 amine (or outer) side, 2 acyl side, 3 side chain; on linkers, the order of the positions; unused ones are H or OH. Bridge positions count the residues as written; N and C are the ends. Square brackets hold non-standard residues; d marks the D form. Primed or numbered codes have the meaning given here. * marks the point of attachment. tMeBn(DOTA-PP) = 1,3,5-trimethylbenzylidene, two thioethers to Cys, third CH2 bound to one N of piperazine whose other N bears DOTA, O=C(O)CN1CCN(CC(=O)O)CCN(CC(=O)N2CCN(Cc3cc(C[*:1])cc(C[*:2])c3)CC2)CCN(CC(=O)O)CC1; Ttds″ = 1,13-diamino-4,7,10-trioxatridecan-succinamic acid spacer, O=C(CCC(=O)[*:2])NCCCOCCOCCOCCCN[*:1]; Efa = N-[2-(2-amino-ethanesulfonyl)-ethyl]-succinamic acid, O=C(CCC(=O)[*:2])NCCS(=O)(=O)CCN[*:1]; Ttds = 1,13-diamino-4,7,10-trioxatridecan-succinamic acid, O=C(CCC(=O)[*:2])NCCCOCCOCCOCCCN[*:1]; N4Ac = 6-Carboxy-1,4,8,11-tetraazaundecane, an N4-chelator, NCCNCC(CNCCN)C(=O)*; 3MeBn(3) = 3-methylbenzylidene (m-xylylene), from α,α′-dibromo-m-xylene; DOTA = O=C(O)CN1CCN(CC(=O)O)CCN(CC(=O)*)CCN(CC(=O)O)CC1; mXylylene = c1cc(C[*:1])cc(C[*:2])c1; NMeF = CN[C@@H](Cc1ccccc1)C(=O)O; 4Amb = NCc1ccc(C(=O)O)cc1; Nle = CCCC[C@H](N)C(=O)O; Hexanoyl = CCCCCC(=O)*

T1: recombinant human PREP (R&D systems, #4308-SE) (human, UniProt P48147 1-710)
T1 sequence: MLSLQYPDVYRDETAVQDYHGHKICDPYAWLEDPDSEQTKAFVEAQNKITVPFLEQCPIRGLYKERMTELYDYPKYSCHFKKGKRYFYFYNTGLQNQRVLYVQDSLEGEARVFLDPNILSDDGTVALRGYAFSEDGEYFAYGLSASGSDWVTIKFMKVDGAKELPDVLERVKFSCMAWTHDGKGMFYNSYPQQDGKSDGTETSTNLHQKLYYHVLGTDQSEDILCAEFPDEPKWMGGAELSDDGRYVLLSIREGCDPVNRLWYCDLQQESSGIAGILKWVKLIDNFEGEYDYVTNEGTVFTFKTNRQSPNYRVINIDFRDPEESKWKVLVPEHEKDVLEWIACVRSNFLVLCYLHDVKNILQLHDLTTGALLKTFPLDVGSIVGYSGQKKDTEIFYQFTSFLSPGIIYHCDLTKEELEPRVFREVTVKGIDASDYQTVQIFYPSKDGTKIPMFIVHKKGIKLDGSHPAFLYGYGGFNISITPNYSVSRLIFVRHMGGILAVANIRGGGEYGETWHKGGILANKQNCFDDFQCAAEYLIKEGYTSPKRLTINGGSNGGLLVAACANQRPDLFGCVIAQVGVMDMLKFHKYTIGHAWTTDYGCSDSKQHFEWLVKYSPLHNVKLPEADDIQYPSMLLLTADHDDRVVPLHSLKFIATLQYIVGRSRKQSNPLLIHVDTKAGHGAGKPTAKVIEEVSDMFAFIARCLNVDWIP


Key:
[1] = target: T1, recombinant human PREP (R&D systems, …); experiment: cell-based or functional assay
[2] = target: Recombinant human DPP4 (R&D systems, #9168-SE) (human, UniProt P27487 29-766); experiment: cell-based or functional assay
[3] = target: T2, Recombinant human FAP (R&D systems, #3715-SE) (human, UniProt Q12884 26-760); experiment: SPR (Biacore T200), FAP captured on anti-FAP antibody, single cycle kinetics
T2 construct: bought; in SPR captured on immobilized anti-FAP antibody MAB3715; also called rhFAP; human recombinant FAP

[4] = target: T3, human fibroblast activation protein (FAP) on WI-38 fibroblasts (human, UniProt Q12884 1-760); experiment: competitive FACS, WI-38 cells, Cy5-labeled peptide as competitor; B = pIC50 7.1 to 8.0
T3 construct: FAP-expressing human WI-38 fibroblasts (ECACC)

Sequence of Recombinant human DPP4 (R&D systems, #9168-SE) (P27487 29-766 limits assumed): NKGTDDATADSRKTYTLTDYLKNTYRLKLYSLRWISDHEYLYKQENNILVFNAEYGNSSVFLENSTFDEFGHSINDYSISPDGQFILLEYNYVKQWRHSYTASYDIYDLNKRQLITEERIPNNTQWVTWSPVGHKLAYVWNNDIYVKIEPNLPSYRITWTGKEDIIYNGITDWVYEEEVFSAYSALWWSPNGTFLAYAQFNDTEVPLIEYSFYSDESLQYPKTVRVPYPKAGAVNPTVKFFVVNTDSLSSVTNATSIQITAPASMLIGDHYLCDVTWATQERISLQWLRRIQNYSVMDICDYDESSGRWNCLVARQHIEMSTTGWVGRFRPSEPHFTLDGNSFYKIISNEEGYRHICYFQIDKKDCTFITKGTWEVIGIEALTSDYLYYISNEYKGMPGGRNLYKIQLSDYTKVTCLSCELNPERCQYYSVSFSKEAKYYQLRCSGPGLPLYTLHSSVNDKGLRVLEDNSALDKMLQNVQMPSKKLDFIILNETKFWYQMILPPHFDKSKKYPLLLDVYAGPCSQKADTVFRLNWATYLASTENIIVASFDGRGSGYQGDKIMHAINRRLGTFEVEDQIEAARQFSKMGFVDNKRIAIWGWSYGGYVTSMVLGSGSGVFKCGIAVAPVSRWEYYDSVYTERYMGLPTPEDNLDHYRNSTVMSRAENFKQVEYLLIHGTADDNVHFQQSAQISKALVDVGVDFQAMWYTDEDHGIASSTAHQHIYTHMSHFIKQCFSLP

pIC50 (PREP) [1] [pIC50] | pIC50 (DPP4) [2] [pIC50] | pKD Category [3] [pKD] | pIC50 [4] [pic50] | Binder
< 6 | < 6 | > 8 |  | Hexanoyl-CPPTEFCDH[NMeF]R[Ttds″]K(DOTA)-NH2 (linker 1-7 via mXylylene; SMILES CCCCCC(=O)N[C@H]1CSCc2cccc(c2)CSC[C@@H](C(=O)N[C@@H](CC(=O)O)C(=O)N[C@@H](Cc2c[nH]cn2)C(=O)N(C)[C@@H](Cc2ccccc2)C(=O)N[C@@H](CCCNC(=N)N)C(=O)NCCCOCCOCCOCCCNC(=O)CCC(=O)N[C@@H](CCCCNC(=O)CN2CCN(CC(=O)O)CCN(CC(=O)O)CCN(CC(=O)O)CC2)C(N)=O)NC(=O)[C@H](Cc2ccccc2)NC(=O)[C@H](CCC(=O)O)NC(=O)[C@H]([C@@H](C)O)NC(=O)[C@@H]2CCCN2C(=O)[C@@H]2CCCN2C1=O, also called 3BP-3275) [Hex-[Cys(3MeBn)-Pro-Pro-Thr-Glu-Phe-Cys]-Asp-His-Nmf-Arg-Ttds-Lys(DOTA)-NH2]
< 6 | < 6 | > 8 |  | {DOTA}-[Ttds][Nle]CPPTEFCD-NH2 (linker 3-9 via mXylylene; SMILES CCCC[C@H](NC(=O)CCC(=O)NCCCOCCOCCOCCCNC(=O)CN1CCN(CC(=O)O)CCN(CC(=O)O)CCN(CC(=O)O)CC1)C(=O)N[C@H]1CSCc2cccc(c2)CSC[C@@H](C(=O)N[C@@H](CC(=O)O)C(N)=O)NC(=O)[C@H](Cc2ccccc2)NC(=O)[C@H](CCC(=O)O)NC(=O)[C@H]([C@@H](C)O)NC(=O)[C@@H]2CCCN2C(=O)[C@@H]2CCCN2C1=O, also called 3BP-3320) [DOTA-Ttds-Nle-[Cys(3MeBn)-Pro-Pro-Thr-Glu-Phe-Cys]-Asp-NH2]
< 6 | < 6 | > 8 |  | {DOTA}-[Ttds][Nle]CPPTEFCD[4Amb]R-NH2 (linker 3-9 via mXylylene; SMILES CCCC[C@H](NC(=O)CCC(=O)NCCCOCCOCCOCCCNC(=O)CN1CCN(CC(=O)O)CCN(CC(=O)O)CCN(CC(=O)O)CC1)C(=O)N[C@H]1CSCc2cccc(c2)CSC[C@@H](C(=O)N[C@@H](CC(=O)O)C(=O)NCc2ccc(C(=O)N[C@@H](CCCNC(=N)N)C(N)=O)cc2)NC(=O)[C@H](Cc2ccccc2)NC(=O)[C@H](CCC(=O)O)NC(=O)[C@H]([C@@H](C)O)NC(=O)[C@@H]2CCCN2C(=O)[C@@H]2CCCN2C1=O, also called 3BP-3321) [DOTA-Ttds-Nle-[Cys(3MeBn)-Pro-Pro-Thr-Glu-Phe-Cys]-Asp-Pamb-Arg-NH2]
< 6 | < 6 | > 8 |  | Hexanoyl-CPPTQFCD-NH2 (linker 1-7 via tMeBn(DOTA-PP); SMILES CCCCCC(=O)N[C@H]1CSCc2cc(cc(CN3CCN(C(=O)CN4CCN(CC(=O)O)CCN(CC(=O)O)CCN(CC(=O)O)CC4)CC3)c2)CSC[C@@H](C(=O)N[C@@H](CC(=O)O)C(N)=O)NC(=O)[C@H](Cc2ccccc2)NC(=O)[C@H](CCC(N)=O)NC(=O)[C@H]([C@@H](C)O)NC(=O)[C@@H]2CCCN2C(=O)[C@@H]2CCCN2C1=O) [Hex-[Cys(tMeBn(DOTA-PP))-Pro-Pro-Thr-Gln-Phe-Cys]-Asp-NH2]
< 6 | < 6 | > 8 |  | Hexanoyl-CPPTQFCD-NH2 (linker 1-7 via tMeBn(DOTA-AET), also called 3BP-3426) [Hex-[Cys(tMeBn(DOTA-AET))-Pro-Pro-Thr-Gln-Phe-Cys]-Asp-NH2]
< 6 | < 6 | > 8 |  | Hexanoyl-CPPTQFCD-NH2 (linker 1-7 via mXylylene; SMILES CCCCCC(=O)N[C@H]1CSCc2cccc(c2)CSC[C@@H](C(=O)N[C@@H](CC(=O)O)C(N)=O)NC(=O)[C@H](Cc2ccccc2)NC(=O)[C@H](CCC(N)=O)NC(=O)[C@H]([C@@H](C)O)NC(=O)[C@@H]2CCCN2C(=O)[C@@H]2CCCN2C1=O) [Hex-[Cys(3MeBn)-Pro-Pro-Thr-Gln-Phe-Cys]-Asp-NH2]
 |  |  | 7.1 to 8 | N4Ac-[Efa][Nle]CPPTEFC-OH (linker 3-9 via 3MeBn(3), also called 3BP-4243) [N4Ac-Efa-Nle-[Cys-(3MeBn)-Pro-Pro-Thr-Glu-Phe-Cys]-OH]
